Source: US8383581B2, “Short-chain peptides as parathyroid hormone (PTH) receptor agonist” (Cadila Healthcare Limited, priority 2009, dated 2013)
*1 amine or outer side, *2 acyl side, *3 side chain or, on linkers, in order; H or OH if unused. Where no end group is shown, it is not given here. [ ]: non-standard residue; d: D form. αMe‑APPA = 2-amino-2-methyl-5-phenylpentanoic acid, C[C@@](CCCc1ccccc1)(N[*:1])C(=O)[*:2]; Bip(2'-Et-4'-OMe) = CCc1cc(OC)ccc1-c1ccc(C[C@H](N)C(=O)O)cc1; Arg(NO2) = N=C(NCCC[C@H](N)C(=O)O)N[N+](=O)[O-]; αMePhe(2,6-F2) = C[C@](N)(Cc1c(F)cccc1F)C(=O)O; αMePhe(2-F) = C[C@](N)(Cc1ccccc1F)C(=O)O; αMeW = C[C@](N)(Cc1c[nH]c2ccccc12)C(=O)O; αMeNle = CCCC[C@](C)(N[*:1])C(=O)[*:2]; αMe‑Bip(OMe) = α-methylated Bip(OMe); hhPhe = N[C@@H](CCCc1ccccc1)C(=O)O; hArg = N=C(N)NCCCC[C@H](N)C(=O)O; hCit = NC(=O)NCCCC[C@H](N)C(=O)O; αMeF = C[C@](N)(Cc1ccccc1)C(=O)O; Cit = NC(=O)NCCC[C@H](N)C(=O)O; αMeV = CC(C)[C@](C)(N)C(=O)O; αMeM = CSCC[C@](C)(N)C(=O)O; αMeP = C[C@@]1(C(=O)O)CCCN1; Nle = CCCC[C@H](N)C(=O)O; Orn = NCCC[C@H](N)C(=O)O; Ac5c = NC1(C(=O)O)CCCC1; Ac3c = NC1(C(=O)O)CC1; Aib = CC(C)(N)C(=O)O

T1: rat PTH-1R (rat PTHR endogenously expressed on UMR-106 rat osteosarcoma cells) (rat, UniProt P25961 27-591)
T1 sequence (looked up): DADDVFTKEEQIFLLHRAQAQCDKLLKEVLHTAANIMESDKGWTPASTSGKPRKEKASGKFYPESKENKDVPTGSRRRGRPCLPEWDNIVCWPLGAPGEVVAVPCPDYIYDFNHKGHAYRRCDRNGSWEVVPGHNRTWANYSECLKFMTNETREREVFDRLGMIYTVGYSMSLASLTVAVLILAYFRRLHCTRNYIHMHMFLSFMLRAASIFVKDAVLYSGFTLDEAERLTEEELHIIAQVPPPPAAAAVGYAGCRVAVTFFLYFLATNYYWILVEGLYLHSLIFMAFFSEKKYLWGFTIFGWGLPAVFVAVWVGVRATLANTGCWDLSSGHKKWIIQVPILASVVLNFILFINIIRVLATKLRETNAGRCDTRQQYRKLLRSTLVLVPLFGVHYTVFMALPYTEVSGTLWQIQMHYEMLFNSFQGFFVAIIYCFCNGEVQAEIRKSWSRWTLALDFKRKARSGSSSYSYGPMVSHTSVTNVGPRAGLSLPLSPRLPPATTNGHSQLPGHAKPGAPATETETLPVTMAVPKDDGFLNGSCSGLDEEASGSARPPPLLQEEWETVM

B1: Seq. ID. 59 (peptide)
peptide: [Ac3c]V[Aib]EIQ[αMePhe(2-F)][Nle]HQ[hArg][αMeP]K[αMePhe(2-F)]
B2: Seq. ID. 212 (peptide)
peptide: [Aib]V[Aib]EIQ[αMePhe(2,6-F2)][Nle]HQ[hArg][Aib][αMePhe(2,6-F2)][αMePhe(2-F)]
B3: Seq. ID. 954 (peptide)
peptide: [αMeV][Ac5c]V[Aib]EIQL[αMeM]HQ[hArg]A[hArg][αMeW][αMe‑APPA]
B4: Seq. ID. 292 (peptide)
peptide: [Ac5c]V[Aib]EIQ[αMePhe(2-F)][Nle]HQ[Orn][Aib][Cit][αMePhe(2,6-F2)]
B5: Seq. ID. 935 (peptide)
peptide: V[Ac3c]V[Aib]EIQL[αMeNle]HQ[hArg]A[hArg][αMePhe(2-F)][αMe‑APPA]
B6: Seq. ID. 905 (peptide)
peptide: V[Aib]V[Aib]EIQL[Nle]HQ[hArg]A[hArg][Bip(2'-Et-4'-OMe)][αMe‑APPA]
B7: Seq. ID. 78 (peptide)
peptide: [Aib]V[Ac5c]EIQ[αMePhe(2,6-F2)][Nle]HQ[hArg][αMeP]K[αMePhe(2-F)]
B8: Seq. ID. 110 (peptide)
peptide: [Ac3c]V[Aib]EIQ[αMePhe(2,6-F2)][Nle]HQ[hArg][αMeP]K[αMePhe(2,6-F2)]
B9: Seq. ID. 198 (peptide)
peptide: [Ac5c]V[Ac5c]EIQ[αMePhe(2,6-F2)][Nle]HQ[hArg][Aib][Aib][αMePhe(2,6-F2)]
B10: Seq. ID. 872 (peptide)
peptide: [Aib]V[Aib]EIQ[αMePhe(2,6-F2)][Nle]HQ[hCit][Aib][αMePhe(2,6-F2)][Bip(2'-Et-4'-OMe)][hhPhe]
B11: Seq. ID. 49 (peptide)
peptide: [Ac5c]V[Aib]EIQ[αMePhe(2,6-F2)][Nle]HQ[hArg]AK[αMeF]
B12: Seq. ID. 950 (peptide)
peptide: V[Ac3c]V[Aib]EIQL[αMeM]HQ[hArg]A[hArg][αMeW][αMe‑APPA]
B13: Seq. ID. 238 (peptide)
peptide: [Ac5c]V[Ac5c]EIQ[αMePhe(2,6-F2)][Nle]HQ[hArg][Aib][αMePhe(2,6-F2)][αMePhe(2,6-F2)]
B14: Seq. ID. 271 (peptide)
peptide: [Aib]V[Aib]EIQ[αMePhe(2,6-F2)][Nle]HQ[hArg]A[Arg(NO2)][αMePhe(2,6-F2)]
B15: Seq. ID. 174 (peptide)
peptide: [Ac3c]V[Aib]EIQ[αMePhe(2,6-F2)][Nle]HQ[hArg][Aib][Aib][αMePhe(2-F)]
B16: Seq. ID. 9 (peptide)
peptide: [Aib]V[Aib]EIQLMHQ[hArg][Aib]K[αMeF]
B17: Seq. ID. 886 (peptide)
peptide: [Aib]V[Aib]EIQ[αMePhe(2,6-F2)][Nle]HQ[αMePhe(2,6-F2)][Aib][Aib][Bip(2'-Et-4'-OMe)][hhPhe]
B18: Seq. ID. 942 (peptide)
peptide: [Aib]V[Aib]EIQL[αMeM]HQ[hArg]A[hArg][αMeW][hhPhe]
B19: Seq. ID. 925 (peptide)
peptide: V[Ac5c]V[Aib]EIQL[αMeNle]HQ[hArg]A[hArg][Bip(2'-Et-4'-OMe)][αMe‑APPA]
B20: Seq. ID. 899 (peptide)
peptide: [Aib]V[Aib]EIQL[Nle]HQ[hArg]A[hArg][αMe‑Bip(OMe)][hhPhe]
B21: Seq. ID. 65 (peptide)
peptide: [Ac5c]V[Ac5c]EIQ[αMePhe(2-F)][Nle]HQ[hArg][αMeP]K[αMePhe(2-F)]
B22: Seq. ID. 156 (peptide)
peptide: [Aib]V[Ac5c]EIQ[αMePhe(2,6-F2)][Nle]HQ[hArg][Aib][Cit][αMePhe(2,6-F2)]
B23: Seq. ID. 41 (peptide)
peptide: [Ac3c]V[Aib]EIQ[αMePhe(2,6-F2)][Nle]HQ[hArg][Aib]K[αMeF]
B24: Seq. ID. 132 (peptide)
peptide: [Aib]V[Aib]EIQ[αMePhe(2,6-F2)][Nle]HQ[hArg][Aib][Cit][αMePhe(2-F)]
B25: Seq. ID. 926 (peptide)
peptide: [αMeV][Ac5c]V[Aib]EIQL[αMeM]HQ[hArg]A[hArg][Bip(2'-Et-4'-OMe)][αMe‑APPA]
B26: Seq. ID. 91 (peptide)
peptide: [Aib]V[Aib]EIQ[αMePhe(2-F)][Nle]HQ[hArg][αMeP]K[αMePhe(2,6-F2)]
B27: Seq. ID. 256 (peptide)
peptide: [Aib]V[Ac5c]EIQ[αMePhe(2,6-F2)][Nle]HQ[hArg][Aib][Arg(NO2)][αMePhe(2-F)]

target: T1, rat PTH-1R (rat PTHR endogenously …); experiment: cell-based or functional assay

cAMP released with respect to control, 1 nM peptide, UMR-106 cells | cAMP released with respect to control, 10 nM peptide, UMR-106 cells | cAMP released with respect to control, 100 nM peptide, UMR-106 cells | Binder
19 percent of control | 66 percent of control | 84 percent of control | B1
34 percent of control | 88 percent of control | 116 percent of control | B2
36 percent of control | 88 percent of control | 116 percent of control | B3
39 percent of control | 104 percent of control | 120 percent of control | B4
38 percent of control | 102 percent of control | 117 percent of control | B5
39 percent of control | 104 percent of control | 120 percent of control | B6
23 percent of control | 73 percent of control | 93 percent of control | B7
12 percent of control | 39 percent of control | 72 percent of control | B8
32 percent of control | 71 percent of control | 99 percent of control | B9
19 percent of control | 42 percent of control | 59 percent of control | B10
16 percent of control | 56 percent of control | 73 percent of control | B11
26 percent of control | 67 percent of control | 81 percent of control | B12
38 percent of control | 91 percent of control | 120 percent of control | B13
46 percent of control | 108 percent of control | 116 percent of control | B14
31 percent of control | 72 percent of control | 100 percent of control | B15
16 percent of control | 41 percent of control | 52 percent of control | B16
31 percent of control | 72 percent of control | 100 percent of control | B17
29 percent of control | 52 percent of control | 69 percent of control | B18
16 percent of control | 41 percent of control | 52 percent of control | B19
38 percent of control | 91 percent of control | 120 percent of control | B20
34 percent of control | 82 percent of control | 104 percent of control | B21
31 percent of control | 89 percent of control | 106 percent of control | B22
26 percent of control | 79 percent of control | 97 percent of control | B23
29 percent of control | 82 percent of control | 101 percent of control | B24
18 percent of control | 51 percent of control | 72 percent of control | B25
42 percent of control | 101 percent of control | 110 percent of control | B26
28 percent of control | 71 percent of control | 87 percent of control | B27
